The numbers were not newly measured in article PMC2726620 (Journal of medicinal chemistry, 2008), which cites them from elsewhere.

For orientation: pKi means the negative decadic logarithm of the Ki, by convention in mol/L. As a reminder, the pIC50 is the negative decadic logarithm of the IC50, by convention in mol/L.

pIC50, pKi: −log10 of the molar value. Non-standard residues stand in square brackets, D forms with d. Residues, ends and D or L forms follow the SMILES beside them. No end group written: not given here. *: point of attachment. Fmoc = O=C(OCC1c2ccccc2-c2ccccc21)*; NMePhg = CN[C@H](C(=O)O)c1ccccc1; Cha = N[C@@H](CC1CCCCC1)C(=O)O

The target in one series is mR1 dimer. The settings on record: read-out: Ki for mR1 dimer; from directed minilibrary screening studies.
The target in another series is T1, ScRR (Saccharomyces cerevisiae, UniProt P21524).
T1 sequence (P21524 1-888): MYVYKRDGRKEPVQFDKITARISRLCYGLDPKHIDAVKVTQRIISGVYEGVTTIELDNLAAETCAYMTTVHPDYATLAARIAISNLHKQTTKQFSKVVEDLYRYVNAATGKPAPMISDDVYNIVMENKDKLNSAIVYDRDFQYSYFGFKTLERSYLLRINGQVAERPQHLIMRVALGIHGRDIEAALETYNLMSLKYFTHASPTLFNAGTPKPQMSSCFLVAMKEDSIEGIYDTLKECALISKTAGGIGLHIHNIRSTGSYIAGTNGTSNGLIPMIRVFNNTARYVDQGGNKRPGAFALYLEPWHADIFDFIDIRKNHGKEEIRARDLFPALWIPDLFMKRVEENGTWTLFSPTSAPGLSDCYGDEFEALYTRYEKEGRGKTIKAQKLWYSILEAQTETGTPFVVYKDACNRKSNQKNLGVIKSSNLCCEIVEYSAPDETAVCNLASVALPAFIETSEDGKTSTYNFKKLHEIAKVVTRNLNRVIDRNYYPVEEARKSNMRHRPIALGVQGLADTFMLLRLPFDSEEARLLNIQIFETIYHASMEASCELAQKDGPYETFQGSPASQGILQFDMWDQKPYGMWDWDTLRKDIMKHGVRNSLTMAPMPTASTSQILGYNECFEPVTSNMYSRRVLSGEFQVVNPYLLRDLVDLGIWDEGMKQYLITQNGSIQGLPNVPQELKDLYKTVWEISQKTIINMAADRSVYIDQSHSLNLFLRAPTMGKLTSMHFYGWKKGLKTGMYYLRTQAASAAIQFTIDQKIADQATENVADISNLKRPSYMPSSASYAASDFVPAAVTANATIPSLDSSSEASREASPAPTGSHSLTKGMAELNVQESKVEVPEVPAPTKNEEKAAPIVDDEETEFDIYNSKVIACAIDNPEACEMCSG
The conditions noted are these: read-out: IC50, ScRR; footnote *: IC50 values were reported in [30].

For series [1], the target named is EcR2 20-mer peptide C-terminal 20-mer (Escherichia coli) (UniProt P69924).
EcR2 20-mer peptide C-terminal 20-mer (Escherichia coli), sequence (P69924 357-376): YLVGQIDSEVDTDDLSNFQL
The target in series [2] is EcR2 octapeptide C-terminal octapeptide (Escherichia coli) (UniProt P69924).
EcR2 octapeptide C-terminal octapeptide (Escherichia coli), sequence (P69924 whole entry, looked up): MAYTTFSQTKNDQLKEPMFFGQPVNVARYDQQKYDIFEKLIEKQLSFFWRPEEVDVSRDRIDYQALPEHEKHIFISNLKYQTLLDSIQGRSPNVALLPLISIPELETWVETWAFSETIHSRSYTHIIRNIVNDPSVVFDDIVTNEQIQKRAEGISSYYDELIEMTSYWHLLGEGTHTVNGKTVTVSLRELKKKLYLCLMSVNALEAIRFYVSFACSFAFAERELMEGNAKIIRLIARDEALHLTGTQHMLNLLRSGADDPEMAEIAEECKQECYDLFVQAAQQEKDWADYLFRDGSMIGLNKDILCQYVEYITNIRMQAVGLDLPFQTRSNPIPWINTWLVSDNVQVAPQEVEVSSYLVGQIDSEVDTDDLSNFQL

For the molecule `CC(C)C[C@H](NC(=O)[C@H](c1ccccc1)N(C)C(=O)OCC1c2ccccc2-c2ccccc21)C(=O)N[C@@H](CC(=O)O)C(=O)N[C@@H](CC1CCCCC1)C(=O)N[C@@H](CC(=O)O)C(=O)N[C@@H](Cc1ccccc1)C(=O)O` [P6, ^1Fmoc(Me)PhgLDChaDF^7] (Fmoc-[NMePhg]LD[Cha]DF-OH; C-terminus assumed), the pKi at mR1 dimer is 6.51.

Take “^1FTFNEDF^7 (not fully specified; printed as 1FTFNEDF7) [ScR2]”: in the series with ScRR, the pIC50 was 4.36. With “^2NFDDDF^7 (not fully specified; printed as 2NFDDDF7) [ScR4]”, the pIC50 with ScRR is 4.52. Regarding “ribonucleotide reductase R1 (EcR1) (from UniProt P00452)”, the pKi was 4.70 in series [1] and 3.43 in series [2].
